± gives the standard deviation of the averaged measurements.
Experiment: total protein half-life in vivo (active degradation + dilution); higher = more stable protein
[1] = E. coli NCM3722 delta-clpP delta-lon delta-hslV, growth: N-lim chemostat, doubling time 6 h
[2] = E. coli NCM3722 delta-clpP, growth: N-lim chemostat, doubling time 6 h
[3] = E. coli NCM3722 delta-hslV, growth: N-lim chemostat, doubling time 6 h
[4] = E. coli NCM3722 delta-lon, growth: N-lim chemostat, doubling time 6 h
[5] = E. coli NCM3722 delta-smpB, growth: N-lim chemostat, doubling time 6 h
[6] = wild type E. coli NCM3722, growth: C-lim chemostat, doubling time 3 h
[7] = wild type E. coli NCM3722, growth: C-lim chemostat, doubling time 6 h
[8] = wild type E. coli NCM3722, growth: C-lim chemostat, doubling time 12 h
[9] = wild type E. coli NCM3722, growth: N-lim chemostat, doubling time 6 h
[10] = wild type E. coli NCM3722, growth: N-lim chemostat, doubling time 12 h
[11] = wild type E. coli NCM3722, growth: P-lim chemostat, doubling time 6 h
[12] = wild type E. coli NCM3722, growth: P-lim chemostat, doubling time 12 h

Q: For “MKLLQRGVALALLTTFTLASETALAYEQDKTYKITVLHTNDHHGHFWRNEYGEYGLAAQKTLVDGIRKEVAAEGGSVLLLSGGDINTGVPESDLQDAEPDFRGMNLVGYDAMAIGNHEFDNPLTVLRQQEKWAKFPLLSANIYQKSTGERLFKPWALFKRQDLKIAVIGLTTDDTAKIGNPEYFTDIEFRKPADEAKLVIQELQQTEKPDIIIAATHMGHYDNGEHGSNAPGDVEMARALPAGSLAMIVGGHSQDPVCMAAENKKQVDYVPGTPCKPDQQNGIWIVQAHEWGKYVGRADFEFRNGEMKMVNYQLIPVNLKKKVTWEDGKSERVLYTPEIAENQQMISLLSPFQNKGKAQLEVKIGETNGRLEGDRDKVRFVQTNMGRLILAAQMDRTGADFAVMSGGGIRDSIEAGDISYKNVLKVQPFGNVVVYADMTGKEVIDYLTAVAQMKPDSGAYPQFANVSFVAKDGKLNDLKIKGEPVDPAKTYRMATLNFNATGGDGYPRLDNKPGYVNTGFIDAEVLKAYIQKSSPLDVSVYEPKGEVSWQ”, which “total protein half-life in vivo” value [1] is on record?
A: 5.52 ± 0.41 h

Q: What about the “total protein half-life in vivo” value [2] of the same sequence?
A: 5.69 ± 0.46 h

Q: And the “total protein half-life in vivo” value [3]?
A: 6.306 ± 0.01 h

Q: What about the “total protein half-life in vivo” value [4] of the same sequence?
A: 6.44 ± 0.24 h

Q: And the “total protein half-life in vivo” value [5]?
A: 5.9 ± 0.07 h

Q: What about the “total protein half-life in vivo” value [6] of the same sequence?
A: 3.091 ± 0.03 h

Q: And the “total protein half-life in vivo” value [7]?
A: 6.01 ± 0.52 h

Q: And the “total protein half-life in vivo” value [8]?
A: 12.9 ± 0.35 h

Q: What about the “total protein half-life in vivo” value [9] of the same sequence?
A: 6.62 ± 0.42 h

Q: And the “total protein half-life in vivo” value [10]?
A: 12.4 ± 1.3 h

Q: And the “total protein half-life in vivo” value [11]?
A: 5.21 ± 0.21 h

Q: What about the “total protein half-life in vivo” value [12] of the same sequence?
A: 11.2 ± 0.18 h

Q: For “MKLNATYIKIRDKWWGLPLFLPSLILPIFAHINTFAHISSGEVFLFYLPLALMISMMMFFSWAALPGIALGIFVRKYAELGFYETLSLTANFIIIIILCWGGYRVFTPRRNNVSHGDTRLISQRIFWQIVFPATLFLILFQFAAFVGLLASRENLVGVMPFNLGTLINYQALLVGNLIGVPLCYFIIRVVRNPFYLRSYYSQLKQQVDAKVTKKEFALWLLALGALLLLLCMPLNEKSTIFSTNYTLSLLLPLMMWGAMRYGYKLISLLWAVVLMISIHSYQNYIPIYPGYTTQLTITSSSYLVFSFIVNYMAVLATRQRAVVRRIQRLAYVDPVVHLPNVRALNRALRDAPWSALCYLRIPGMEMLVKNYGIMLRIQYKQKLSHWLSPLLEPGEDVYQLSGNDLALRLNTESHQERITALDSHLKQFRFFWDGMPMQPQIGVSYCYVRSPVNHIYLLLGELNTVAELSIVTNAPENMQRRGAMYLQRELKDKVAMMNRLQQALEHNHFFLMAQPITGMRGDVYHEILLRMKGENDELISPDSFLPVAHEFGLSSSIDMWVIEHTLQFMAENRAKMPAHRFAINLSPTSVCQARFPVEVSQLLAKYQIEAWQLIFEVTESNALTNVKQAQITLQHLQELGCQIAIDDFGTGYASYARLKNVNADLLKIDGSFIRNIVSNSLDYQIVASICHLARMKKMLVVAEYVENEEIREAVLSLGIDYMQGYLIGKPQPLIDTLNEIEPIRESA”, which “total protein half-life in vivo” value [1] is on record?
A: 5.56 h

Q: What about the “total protein half-life in vivo” value [6] of the same sequence?
A: 2.98 h

Q: What about the “total protein half-life in vivo” value [7] of the same sequence?
A: 5.24 h

Q: And the “total protein half-life in vivo” value [8]?
A: 9.12 h

Q: And the “total protein half-life in vivo” value [9]?
A: 4.99 h

Q: What about the “total protein half-life in vivo” value [10] of the same sequence?
A: 6.22 h

Q: What about the “total protein half-life in vivo” value [12] of the same sequence?
A: 11.5 h

Q: For “MKLRLSALALGTTLLVGCASSGTDQQGRSDPLEGFNRTMYNFNFNVLDPYIVRPVAVAWRDYVPQPARNGLSNFTGNLEEPAVMVNYFLQGDPYQGMVHFTRFFLNTILGMGGFIDVAGMANPKLQRTEPHRFGSTLGHYGVGYGPYVQLPFYGSFTLRDDGGDMADGFYPVLSWLTWPMSVGKWTLEGIETRAQLLDSDGLLRQSSDPYIMVREAYFQRHDFIANGGELKPQENPNAQAIQDDLKDIDSE”, which “total protein half-life in vivo” value [1] is on record?
A: 6.54 ± 0.28 h

Q: What about the “total protein half-life in vivo” value [2] of the same sequence?
A: 6.05 ± 0.062 h

Q: What about the “total protein half-life in vivo” value [5] of the same sequence?
A: 5.99 ± 0.31 h

Q: What about the “total protein half-life in vivo” value [6] of the same sequence?
A: 3.153 ± 0.018 h

Q: And the “total protein half-life in vivo” value [7]?
A: 6.61 ± 1.3 h

Q: And the “total protein half-life in vivo” value [8]?
A: 13.9 ± 0.49 h

Q: And the “total protein half-life in vivo” value [9]?
A: 6.37 ± 0.039 h

Q: And the “total protein half-life in vivo” value [10]?
A: 12.59 ± 0.014 h

Q: What about the “total protein half-life in vivo” value [11] of the same sequence?
A: 5.98 ± 0.64 h

Q: And the “total protein half-life in vivo” value [12]?
A: 13.4 ± 0.97 h

Q: With “MKLSTCCAALLLALASPAVLAAPGSCERIQSDISQRIINNGVPESSFTLSIVPNDQVDQPDSQVVGHCANDTHKILYTRTTSGNVSAPAQSSQDGAPAEPQ” as the sequence, how does the “total protein half-life in vivo” value [2] read?
A: 6.13 h

Q: What about the “total protein half-life in vivo” value [4] of the same sequence?
A: 6.79 h

Q: What about the “total protein half-life in vivo” value [5] of the same sequence?
A: 4.61 h

Q: And the “total protein half-life in vivo” value [6]?
A: 3.25 h

Q: And the “total protein half-life in vivo” value [7]?
A: 6.33 h

Q: And the “total protein half-life in vivo” value [9]?
A: 5.52 h

Q: What about the “total protein half-life in vivo” value [10] of the same sequence?
A: 11.6 ± 1.9 h

Q: And the “total protein half-life in vivo” value [11]?
A: 5.94 ± 0.1 h

Q: And the “total protein half-life in vivo” value [12]?
A: > 16 h

Q: For “MKLVTVIIKPFKLEDVREALSSIGIQGLTVTEVKGFGRQKGHAELYRGAEYSVNFLPKVKIDVAIADDQLDEVIDIVSKAAYTGKIGDGKIFVAELQRVIRIRTGEADEAAL [P0AC55]”, which “total protein half-life in vivo” value [2] is on record?
A: 5.2 ± 0.45 h

Q: And the “total protein half-life in vivo” value [3]?
A: 5.45 ± 0.14 h

Q: And the “total protein half-life in vivo” value [4]?
A: 5.044 ± 0.034 h

Q: What about the “total protein half-life in vivo” value [5] of the same sequence?
A: 4.83 ± 0.068 h

Q: And the “total protein half-life in vivo” value [6]?
A: > 4 h

Q: What about the “total protein half-life in vivo” value [7] of the same sequence?
A: 7.02 h

Q: What about the “total protein half-life in vivo” value [9] of the same sequence?
A: 5.43 ± 0.42 h

Q: And the “total protein half-life in vivo” value [10]?
A: 8.82 ± 0.72 h

Q: What about the “total protein half-life in vivo” value [12] of the same sequence?
A: 13.6 ± 2.6 h

Q: With “MKLYIYDHCPYCLKARMIFGLKNIPVELHVLLNDDAETPTRMVGQKQVPILQKDDSRYMPESMDIVHYVDKLDGKPLLTGKRSPAIEEWLRKVNGYANKLLLPRFAKSAFDEFSTPAARKYFVDKKEASAGNFADLLAHSDGLIKNISDDLRALDKLIVKPNAVNGELSEDDIQLFPLLRNLTLVAGINWPSRVADYRDNMAKQTQINLLSSMAI [P0AC59]” as the sequence, how does the “total protein half-life in vivo” value [2] read?
A: 5.06 ± 0.73 h

Q: And the “total protein half-life in vivo” value [3]?
A: 5.49 ± 0.35 h

Q: What about the “total protein half-life in vivo” value [4] of the same sequence?
A: 5.77 ± 0.24 h

Q: What about the “total protein half-life in vivo” value [5] of the same sequence?
A: 5.01 ± 0.41 h

Q: What about the “total protein half-life in vivo” value [7] of the same sequence?
A: 5.57 ± 0.23 h

Q: What about the “total protein half-life in vivo” value [8] of the same sequence?
A: 11.7 ± 1.8 h

Q: What about the “total protein half-life in vivo” value [9] of the same sequence?
A: 5.02 ± 0.15 h

Q: What about the “total protein half-life in vivo” value [10] of the same sequence?
A: 9.43 ± 0.3 h

Q: And the “total protein half-life in vivo” value [11]?
A: 5.33 ± 0.55 h

Q: What about the “total protein half-life in vivo” value [12] of the same sequence?
A: 11.9 ± 0.21 h

Q: For “MKLYNLKDHNEQVSFAQAVTQGLGKNQGLFFPHDLPEFSLTEIDEMLKLDFVTRSAKILSAFIGDEIPQEILEERVRAAFAFPAPVANVESDVGCLELFHGPTLAFKDFGGRFMAQMLTHIAGDKPVTILTATSGDTGAAVAHAFYGLPNVKVVILYPRGKISPLQEKLFCTLGGNIETVAIDGDFDACQALVKQAFDDEELKVALGLNSANSINISRLLAQICYYFEAVAQLPQETRNQLVVSVPSGNFGDLTAGLLAKSLGLPVKRFIAATNVNDTVPRFLHDGQWSPKATQATLSNAMDVSQPNNWPRVEELFRRKIWQLKELGYAAVDDETTQQTMRELKELGYTSEPHAAVAYRALRDQLNPGEYGLFLGTAHPAKFKESVEAILGETLDLPKELAERADLPLLSHNLPADFAALRKLMMNHQ”, which “total protein half-life in vivo” value [1] is on record?
A: 5.07 ± 0.61 h

Q: And the “total protein half-life in vivo” value [2]?
A: 4.78 ± 0.058 h

Q: And the “total protein half-life in vivo” value [3]?
A: 5.09 ± 0.18 h

Q: What about the “total protein half-life in vivo” value [4] of the same sequence?
A: 5.28 ± 0.25 h

Q: And the “total protein half-life in vivo” value [5]?
A: 4.57 ± 0.11 h

Q: And the “total protein half-life in vivo” value [6]?
A: 3.25 ± 0.27 h

Q: What about the “total protein half-life in vivo” value [7] of the same sequence?
A: 6.01 ± 0.15 h

Q: What about the “total protein half-life in vivo” value [8] of the same sequence?
A: 11.9 ± 0.91 h

Q: What about the “total protein half-life in vivo” value [9] of the same sequence?
A: 4.989 ± 0.048 h

Q: What about the “total protein half-life in vivo” value [10] of the same sequence?
A: 8.57 ± 0.57 h

Q: And the “total protein half-life in vivo” value [11]?
A: 5.76 ± 0.32 h

Q: And the “total protein half-life in vivo” value [12]?
A: 11.9 ± 0.51 h
